According to patent US20130253037:

Tests used:
[1] = target: 6-His-Aurora-A (recombinant, wild type, from Sf9 insect cells)
[2] = target: 6-His-cofilin

B1: 6-His-LIMK2 (recombinant, E. coli) (protein)
chain: MSALAGEDVWRCPGCGDHIAPSQIWYRTVNETWHGSCFRCSECQDSLTNWYYEKDGKLYCPKDYWGKFGEFCHGCSLLMTGPFMVAGEFKYHPECFACMSCKVIIEDGDAYALVQHATLYCGKCHNEVVLAPMFERLSTESVQEQLPYSVTLISMPATTEGRRGFSVSVESACSNYATTVQVKEVNRMHISPNNRNAIHPGDRILEINGTPVRTLRVEEVEDAISQTSQTLQLLIEHDPVSQRLDQLRLEARLAPHMQNAGHPHALSTLDTKENLEGTLRRRSLRRSNSISKSPGPSSPKEPLLFSRDISRSESLRCSSSYSQQIFRPCDLIHGEVLGKGFFGQAIKVTHKATGKVMVMKELIRCDEETQKTFLTEVKVMRSLDHPNVLKFIGVLYKDKKLNLLTEYIEGGTLKDFLRSMDPFPWQQKVRFAKGIASGMAYLHSMCIIHRDLNSHNCLIKLDKTVVVADFGLSRLIVEERKRAPMEKATTKKRTLRKNDRKKRYTVVGNPYWMAPEMLNGKSYDETVDIFSFGIVLCEIIGQVYADPDCLPRTLDFGLNVKLFWEKFVPTDCPPAFFPLAAICCRLEPESRPAFSKLEDSFEALSLYLGELGIPLPAELEELDHTVSMQYGLTRDSPP
[1]
  in vitro kinase assay, Aurora A (without TPX2) as putative LIMK2 substrate: when LIMK2 was incubated with Aurora A (without TPX2), Aurora A did not get phosphorylated
[2]
  in vitro kinase assay, cofilin phosphorylation with [32P] ATP: LIMK2 efficiently phosphorylated cofilin as expected (lane 3)
